Read-outs that look alike come from different tables or passages of the source.
Assays:
Experiment in all cases: FACS binding, CHO-K1 cells
human PD-L1 [1] = target: T1, human PD-L1 (human, UniProt Q9NZQ7 19-290)
human PD-L1 [2] = target: T1, human PD-L1; remark: listed apart in the source
human PD-L1 [3] = target: T1, human PD-L1; remark: listed apart in the source

T1 sequence (Q9NZQ7 19-290): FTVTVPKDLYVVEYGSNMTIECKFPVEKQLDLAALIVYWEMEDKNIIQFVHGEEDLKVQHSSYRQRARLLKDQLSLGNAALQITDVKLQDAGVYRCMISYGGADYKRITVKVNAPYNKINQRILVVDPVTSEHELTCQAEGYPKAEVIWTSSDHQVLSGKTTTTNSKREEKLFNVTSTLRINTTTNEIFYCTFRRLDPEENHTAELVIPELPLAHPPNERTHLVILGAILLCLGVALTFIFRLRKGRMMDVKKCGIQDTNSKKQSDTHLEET

EC50 (human PD-L1 [1]) [nM] | EC50 (human PD-L1 [2]) [nM] | EC50 (human PD-L1 [3]) [nM] | Binder
0.262 | 0.34 | 0.215 | CLDN18L-E-pdl1a (bispecific antibody) heavy: not shown light: DIVMTQSPLSLPVTPGEPASISCKSSQTLLNSGNQKNYLTWYLQKPGQSPQLLIYWASTGESGVPDRFSGSGSGTDFTLKISRVEAEDVGVYYCQNAYFYPFTFGGGTKVEIKRTVAAPSVFIFPPSDEQLKSGTASVVCLLNNFYPREAKVQWKVDNALQSGNSQESVTEQDSKDSTYSLSSTLTLSKADYEKHKVYACEVTHQGLSSPVTKSFNRGECEPKSSDKTHTSPPSPEVQLVESGGGLVQPGGSLRLSCAASGRTFVTYGMGWFRQAPGKGREFVSAISWSGSMTSYGDSVKGRFTISRDNAKNTLYLQMNSLRPEDTAVYYCAAALGAVVYTTREPYTYWGQGTLVTVSS
– | 0.591 | 0.418 | CLDN18L-G9-pdl1a (bispecific antibody) heavy: not shown light: DIVMTQSPLSLPVTPGEPASISCKSSQTLLNSGNQKNYLTWYLQKPGQSPQLLIYWASTGESGVPDRFSGSGSGTDFTLKISRVEAEDVGVYYCQNAYFYPFTFGGGTKVEIKRTVAAPSVFIFPPSDEQLKSGTASVVCLLNNFYPREAKVQWKVDNALQSGNSQESVTEQDSKDSTYSLSSTLTLSKADYEKHKVYACEVTHQGLSSPVTKSFNRGECGGGGSGGGSEVQLVESGGGLVQPGGSLRLSCAASGRTFVTYGMGWFRQAPGKGREFVSAISWSGSMTSYGDSVKGRFTISRDNAKNTLYLQMNSLRPEDTAVYYCAAALGAVVYTTREPYTYWGQGTLVTVSS
– | 0.424 | – | CLDN18L-E4-pdl1a (bispecific antibody) heavy: not shown light: DIVMTQSPLSLPVTPGEPASISCKSSQTLLNSGNQKNYLTWYLQKPGQSPQLLIYWASTGESGVPDRFSGSGSGTDFTLKISRVEAEDVGVYYCQNAYFYPFTFGGGTKVEIKRTVAAPSVFIFPPSDEQLKSGTASVVCLLNNFYPREAKVQWKVDNALQSGNSQESVTEQDSKDSTYSLSSTLTLSKADYEKHKVYACEVTHQGLSSPVTKSFNRGECESKYGPPSPPSPEVQLVESGGGLVQPGGSLRLSCAASGRTFVTYGMGWFRQAPGKGREFVSAISWSGSMTSYGDSVKGRFTISRDNAKNTLYLQMNSLRPEDTAVYYCAAALGAVVYTTREPYTYWGQGTLVTVSS
– | 0.452 | – | CLDN18L-E4a-pdl1a (bispecific antibody) heavy: not shown light: DIVMTQSPLSLPVTPGEPASISCKSSQTLLNSGNQKNYLTWYLQKPGQSPQLLIYWASTGESGVPDRFSGSGSGTDFTLKISRVEAEDVGVYYCQNAYFYPFTFGGGTKVEIKRTVAAPSVFIFPPSDEQLKSGTASVVCLLNNFYPREAKVQWKVDNALQSGNSQESVTEQDSKDSTYSLSSTLTLSKADYEKHKVYACEVTHQGLSSPVTKSFNRGECESKYGPPGPPGPEVQLVESGGGLVQPGGSLRLSCAASGRTFVTYGMGWFRQAPGKGREFVSAISWSGSMTSYGDSVKGRFTISRDNAKNTLYLQMNSLRPEDTAVYYCAAALGAVVYTTREPYTYWGQGTLVTVSS
